# Test results as given in patent US9303249B2, “High concentration α-glucosidase compositions for the treatment of Pompe disease” (Amicus Therapeutics, Inc., priority 2012, dated 2016).
# Columns and labels:
# GAA KO mice [1] = assay: Tissue GAA activity after repeat SQ with varying 1-DNJ (Example 16); assay type: in vivo, mouse; conditions: Lumizyme 20 mg/kg SQ alone, 4 doses, 3 days after last dose
# Protocol: 14-week old male GAA KO mice in groups of 7 were used in the present study. Each group of mice was administered one of the following treatments:
# (2) Lumizyme® alone (20 mg/kg) delivered subcutaneously (SQ);
# (3) Co-formulated Lumizyme® (20 mg/kg) and 1-DNJ (3 mg/kg) SQ.
# (4) Co-formulated Lumizyme® (20 mg/kg) and 1-DNJ (10 mg/kg) SQ.
# (5) Co-formulated Lumizyme® (20 mg/kg) and 1-DNJ (30 mg/kg) SQ.
# (§1) Each of the treatments was administered to their respective treatment group for a period of 2 weeks. The treatments were administered on Monday and Thursday of each week. SQ injections were administered between the shoulder blades of each mouse receiving treatment. A total of 4 doses were administered to each study animal.
# (§2) Tissue samples were collected to determine rhGAA uptake 3 days following the last dose of the study (i.e., 3 days post dose 4). Tissue samples included heart, tongue, diaphragm, triceps, quads, gastrocnemius, ventral skin and dorsal skin from the SQ injection site. Tissue samples were also collected to determine glycogen concentration 14 days following the last dose of the study (i.e., 14 days post dose 4).
# FIGS. 47-54 show tissue GAA activity 3 days following the final administration, and glycogen levels 14 days following the final administration. GAA activities in tissues were determined using a 4-MUG fluorogenic substrate assay. Glycogen levels were determined using a glycogen assay (see Example 9 for method). Lumizyme® alone administered subcutaneously led to uptake of enzyme in all investigated tissues following repeat administrations.
# GAA KO mice [2] = assay: Tissue rhGAA activity after repeat SQ dosing between the shoulder blades (Example 13); assay type: in vivo, mouse; conditions: Lumizyme 20 mg/kg +/− 1-DNJ 30 mg/kg SQ, 4 doses (Mon and Thu), 3 days after last dose
# Protocol: 12-week old male GAA KO mice in groups of 7 were used in the present study. Each group of mice was administered one of the following treatments:
# (2) Lumizyme® alone (20 mg/kg) delivered subcutaneously (SQ); or
# (3) Co-formulated Lumizyme® (20 mg/kg) and 1-DNJ (30 mg/kg) SQ.
# as §1, with “treatments were” for “treatments was”, “doses was” for “doses were”, “animal. Diphenhydramine was administered intraperitoneally (IP) before the 3rd and 4th doses.” for “animal.”
# as §2, with “heart, diaphragm,” for “heart,”, “brain, spleen, liver, biceps,” for “diaphragm,”, “quadriceps, soleus,” for “quads,”
# [3] = Solubility of Lumizyme® in the presence of 1-DNJ-HCl and excipients (Example 12); assay type: physicochemical
# Protocol: A vial of Lumizyme® containing 52.5 mg protein, 210 mg mannitol, 0.5 mg polysorbate 80, 9.9 mg Na2HPO4×7H2O, and 31.2 mg NaH2PO4×H2O was dissolved in a minimal volume of water (1 mL added) yielding 1.2 mL of protein solution. Five 240-μL aliquots (each containing 10.5 mg protein) were transferred to Amicon Ultra 0.5 mL 30 kDa cutoff centrifugal filter devices and centrifuged for 10 min at 14,000×g in an Eppendorf centrifuge to obtain about 50 μL of retentate.
# The original excipients present in the composition, i.e., mannitol and polysorbate 80 were exchanged for new excipients to test protein solubility (keeping the same buffer conditions). The following excipient solutions were prepared for the exchange using the original phosphate buffer:
# For exchanging excipients, 5.2 mg Na2HPO4 and 27.1 mg NaH2PO4 were dissolved in 10.3 mL water to prepare the washing/excipient exchange phosphate buffer of approximately 26 mM. A volume of 8 mL of the buffer for excipient exchange was supplemented with 160 mg/mL of the small molecule ligand (to prepare excipient 1, 3, 4 and 5 solutions), while 2 mL was supplemented with 32 mg/mL ligand for excipient 2 (100 mM Arginine). Each of the excipients were dissolved in 2 mL of this buffer at the concentrations listed above.
# An excipient solution was added to each separate filter device to achieve a total volume of 0.5 mL. Each filter device was centrifuged for 15 min at 14,000×g in a bench top Eppendorf centrifuge to retain approximately 25 μL. The units were re-filled with the same excipient solution to 0.5 mL and centrifuged again (this process was repeated 2 times). This procedure efficiently replaced mannitol and polysorbate 80 with excipients described above, diluting the original constituents by about 1:1000. All filtrates for each excipient were collected and examined for any protein leaks through the filter.
# Each centrifugal filter device was inverted in a clean tube, and the concentrated protein solution was collected from each filter device by centrifugation for 2 min at 1000×g. The volume of each sample was determined (66 μL, corresponding to a target protein concentration of 160 mg/mL), and it was confirmed that no visible precipitate was observable in each sample. Samples were transferred back to their respective filter devices and centrifuged for an additional 5 min Samples were then collected by inversion of the filters into clean tubes and centrifuging for 2 min at 1000×g to yield about 37 μL of retentate (corresponding to >280 mg/mL protein based on a total initial concentration of 10.5 mg protein).
# The samples were vortexed and incubated for 1 hr at room temperature to equilibrate liquid and solid phases followed by centrifugation for 10 min at 14,000×g. Again, no visible precipitate was observed. Two-three 10 μL aliquots were taken from the supernatant of each sample (depending on available volume of the liquid phase), and diluted 1:1000 in two steps. Protein concentration was measured by UV absorbance at 280 nm, and the maximum protein solubility was calculated according to a highly reproducible calibration curve. The calibration curve was prepared by dissolving 6.8 mg of Myozyme® (alglucosidase alpha) lyophilized powder (containing 1.16 mg protein) in 1.16 mL of water followed by a serial dilution in deionized water. Absorbance was measured at 280 nm in a 1 cm light-pass quartz semi-micro cuvette using 0.5 mL aliquots.
substance,measurement,setting,value
"Lumizyme®: alglucosidase alfa, recombinant human acid α-glucosidase from Genzyme Corporation",GAA Activity,GAA KO mice [1]; Biceps,45.9 nmol/mg/h
same,GAA Activity,GAA KO mice [1]; Diaphragm,10.6 nmol/mg/h
same,GAA Activity,GAA KO mice [1]; Gastrocnemius,1 nmol/mg/h
same,GAA Activity,GAA KO mice [1]; Heart,1.9 nmol/mg/h
same,GAA Activity,GAA KO mice [1]; Quadriceps,1.3 nmol/mg/h
same,GAA Activity,GAA KO mice [1]; Skin,43.9 nmol/mg/h
same,GAA Activity,GAA KO mice [1]; Soleus,0.9 nmol/mg/h
same,GAA Activity,GAA KO mice [1]; Tongue,2.3 nmol/mg/h
same,GAA Activity,GAA KO mice [1]; Triceps,151.3 nmol/mg/h
same,rhGAA activity uptake,GAA KO mice [2]; Biceps,56.0 nmol/mg/h
same,rhGAA activity uptake,GAA KO mice [2]; Diaphragm,4.2 nmol/mg/h
same,rhGAA activity uptake,GAA KO mice [2]; Gastrocnemius,2.0 nmol/mg/h
same,rhGAA activity uptake,GAA KO mice [2]; Heart,1.9 nmol/mg/h
same,rhGAA activity uptake,GAA KO mice [2]; Quadriceps,2.1 nmol/mg/h
same,rhGAA activity uptake,GAA KO mice [2]; Skin,75 nmol/mg/h
same,rhGAA activity uptake,GAA KO mice [2]; Soleus,2.7 nmol/mg/h
same,rhGAA activity uptake,GAA KO mice [2]; Tongue,2.7 nmol/mg/h
same,rhGAA activity uptake,GAA KO mice [2]; Triceps,88.0 nmol/mg/h
same,Protein solubility,"[3]; Arginine 100 mM, 1-DNJ-HCl 32 mg/mL",201 mg/mL
same,Protein solubility,"[3]; Arginine + Glutamic acid 50 mM + 50 mM, 1-DNJ-HCl 160 mg/mL",242 mg/mL
same,Protein solubility,"[3]; Gamma-cyclodextrin 10% (w/v), 1-DNJ-HCl 160 mg/mL",114 mg/mL
same,Protein solubility,"[3]; PEG400 5% (w/v), 1-DNJ-HCl 160 mg/mL",158 mg/mL
same,Protein solubility,"[3]; Proline 250 mM, 1-DNJ-HCl 160 mg/mL",195 mg/mL
